Data as given in the supplement of paper PMC9732359.
± gives the uncertainty stated by the source.

Experiment: protein stability index of a GFP-peptide fusion (yeast GPS) (PSI 1-4); higher = more stable; sorted into four equal gates, so the index is relative within each strain
Procedure, shortened: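 Yeast carrying a pooled library were grown to mid-log phase in leucine-free medium. Each library plasmid expresses Cherry and has a tiled 17-residue yeast protein peptide fused downstream of GFP. Cells were sorted into four equal gates by GFP/Cherry ratio, and plasmids from each gate were PCR-amplified, Illumina-sequenced and assigned to strains by barcode. Summing, across gates, the read frequency times the gate number gave each peptide's protein stability index.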

Sequence | protein stability index (doa10∆) | protein stability index (pdr5∆) | protein stability index (san1∆) | protein stability index (ubr1∆)
EMGKTDKSTKTAEAPTL [YOR098C/NUP1] | 3.1 ± 0.16 | 3.25 ± 0.15 | 2.89 ± 0.064 | 2.86 ± 0.14
EMTLPTSPLYMDPGAPL [SSN2] | 3.07 ± 0.11 | 2.8 ± 0.11 | 2.8 ± 0.15 | 2.81 ± 0.11
ENANADLENKFNRLKKQ [YIL149C/MLP2] | 3.06 ± 0.067 | 3.07 ± 0.057 | 3.09 ± 0.068 | 3 ± 0.037
ENDTNMNETLNLKVELK [SMC4] | 3.43 ± 0.2 | 3.17 ± 0.084 | 3.09 ± 0.13 | 2.99 ± 0.077
ENEEFITFLQTLYIGNT [ECM29] | 2.06 ± 0.055 | 2.42 ± 0.036 | 2.38 ± 0.11 | 2.22 ± 0.066
ENIQEGTSLTIQHIAAA [CDC53] | 2.52 ± 0.091 | 3.11 ± 0.086 | 2.42 ± 0.099 | 2.91 ± 0.077
ENLADLDYQIGNSESKV [LIN1] | 3.23 ± 0.099 | 3.42 ± 0.11 | 3.06 ± 0.12 | 3.42 ± 0.1
ENLFSKEEVCQGMEGTV [YMR129W/POM152] | 2.5 ± 0.073 | 2.95 ± 0.073 | 2.92 ± 0.054 | 2.65 ± 0.089
ENNYKKRLLGTAFKSSP [RPS23A] | 2.32 ± 0.047 | 2.6 ± 0.049 | 2.22 ± 0.062 | 2.44 ± 0.036
ENRKKDESDSENDIEIK [YLR335W/NUP2] | 2.68 ± 0.1 | 2.23 ± 0.15 | 1.65 ± 0.12 | 2.73 ± 0.082
ENSFYKKEASKTKWDRK [POP1] | 2.25 ± 0.063 | 2.37 ± 0.063 | 2.3 ± 0.068 | 2.22 ± 0.048
ENSGKEMDEKSYEKNED [LIN1] | 3.64 ± 0.28 | 3.29 ± 0.12 | 3.33 ± 0.14 | 3.16 ± 0.11
ENSTSNSKPEKSSDSND [YLR335W/NUP2] | 3.24 ± 0.14 | 3.32 ± 0.16 | 3.31 ± 0.071 | 3.4 ± 0.085
ENTVGLISGAGANPRVL [RPN10] | 1.72 ± 0.052 | 1.46 ± 0.057 | 1.86 ± 0.085 | 1.4 ± 0.044
ENYDAKIELEKKEKWAR [YIL149C/MLP2] | 3.2 ± 0.08 | 3.2 ± 0.12 | 2.67 ± 0.12 | 3.12 ± 0.067
ENYSAMIFETIVDGKLK [FAS1] |  | 3.24 ± 0.22 | 2.98 ± 0.13 | 3.09 ± 0.16
EPEEEKSKREEEAKSVL [ARP9] | 3.15 ± 0.27 | 3.53 ± 0.29 |  | 3.25 ± 0.17
EPGHAADQEQAKLIRSA [RPO21] | 3.2 ± 0.2 | 3.24 ± 0.2 | 2.69 ± 0.19 | 3.12 ± 0.1
EPTVRIQAVFCLTKFQD [YCG1] | 2.27 ± 0.05 | 2.53 ± 0.046 | 2.28 ± 0.063 | 2.78 ± 0.047
EPYARVSGDLNPIHVSR [FAS1] | 2.64 ± 0.14 | 2.92 ± 0.092 | 2.76 ± 0.086 | 2.83 ± 0.1
EPYHFISNYNTKYTDDM [SRB8] | 2.96 ± 0.11 | 2.98 ± 0.07 | 3.01 ± 0.057 | 3.19 ± 0.1
EQELAHILLTELLAYQF [FAS2] | 2.547 ± 0.023 | 2.807 ± 0.025 | 2.67 ± 0.023 | 2.633 ± 0.019
EQHNLVKKGPVRLPTKV [RPS20] | 2.45 ± 0.097 | 2.61 ± 0.16 | 2.65 ± 0.063 | 2.64 ± 0.075
EQKGQMAKKEGTPKTDS [MED4] | 3.22 ± 0.21 | 3 ± 0.22 | 3.13 ± 0.19 | 
EQKITEIEDGQDGGVTP [RPO21] | 3.36 ± 0.081 | 3.38 ± 0.067 | 3.37 ± 0.048 | 3.31 ± 0.067
EQQKEELTDKLSALNSE [SMC1] |  | 3.19 ± 0.11 | 2.73 ± 0.15 | 3.14 ± 0.12

Sequence | protein stability index (doa10∆) | protein stability index (pdr5∆) | protein stability index (san1∆) | protein stability index (ubr1∆)
EQQPEQPQETEEHHEEE [RPT4] | 3.41 ± 0.084 | 3.28 ± 0.12 | 3.2 ± 0.12 | 3.44 ± 0.1
EQSVKTQNSRHYMVHEA [LIN1] | 2.62 ± 0.25 | 2.82 ± 0.11 | 2.49 ± 0.089 | 
EQTVSAVTEATSTNGDS [RGR1] | 3.45 ± 0.16 | 3.29 ± 0.077 | 3.28 ± 0.083 | 3.43 ± 0.12
EQWITIESQMRDLILTE [PRP8] | 2.78 ± 0.088 | 3.1 ± 0.092 | 3.08 ± 0.073 | 3.14 ± 0.077
EREEAEKKRAEQENMRK [MED2] |  |  | 2.75 ± 0.28 | 
EREIKRRKFDPSSSENV [UBP6] | 3.51 ± 0.078 | 3.37 ± 0.071 | 3.14 ± 0.065 | 3.33 ± 0.13
ERHGYIRGIVKQIVHDS [RPL2A] | 1.6 ± 0.051 | 1.84 ± 0.072 | 1.92 ± 0.062 | 1.79 ± 0.05
ERKKSIGSQRGRRLSML [DSN1] | 3.18 ± 0.11 | 2.53 ± 0.087 | 3.13 ± 0.098 | 2.92 ± 0.093
ERLKVPILVTLVSDSEI [POP6] | 1.55 ± 0.035 | 1.86 ± 0.04 | 1.58 ± 0.066 | 1.66 ± 0.025
ERLMTWKFKSLIEILRL [RRI2] | 2.11 ± 0.054 | 2.01 ± 0.044 | 1.68 ± 0.088 | 2.31 ± 0.032
ERSDLLPYLSDTCAVSF [YJR042W/NUP85] | 2.31 ± 0.099 | 2.46 ± 0.06 | 2.59 ± 0.076 | 2.45 ± 0.041
ERSICALGEFADWDPES [YML031W/NDC1] | 3.5 ± 0.14 | 3.53 ± 0.092 | 3.28 ± 0.088 | 3.27 ± 0.064
ERYSDKYLKKRKIGISI [RPC31] | 1.61 ± 0.11 | 2.39 ± 0.23 |  | 2.44 ± 0.21
ERYYELAFDKLNVPVFQ [ARP7] | 1.87 ± 0.064 | 2.17 ± 0.073 | 1.83 ± 0.1 | 2.07 ± 0.07
ESAFENLMGNRNNHNSN [SNF12] |  |  |  | 3.44 ± 0.21
ESEKLVTPEDVMTISSL [RPC82] | 3.23 ± 0.083 | 3.13 ± 0.078 | 3.05 ± 0.059 | 3.26 ± 0.072
ESENFKIIALQPNEISF [RGR1] | 2.39 ± 0.091 | 2.55 ± 0.11 | 2.54 ± 0.084 | 2.49 ± 0.075
ESHIDSRNNTLNVTPSK [SIR4] | 2.77 ± 0.045 | 2.62 ± 0.038 | 2.75 ± 0.046 | 2.63 ± 0.033
ESILQMNQGEGEPEAGN [RPC34] | 3 ± 0.2 | 3.18 ± 0.093 | 3.46 ± 0.26 | 3 ± 0.13
ESKLKIDPDTKAPNAVV [RPB11] | 2.24 ± 0.2 | 2.56 ± 0.22 | 2.62 ± 0.11 | 2.92 ± 0.14
ESKSLLNLFSNVLKAPF [SIR4] | 2.39 ± 0.086 | 2.16 ± 0.13 | 1.56 ± 0.21 | 2.48 ± 0.077
ESLRGILHVRAQYCYKN [SRP72] | 1.94 ± 0.1 | 2.36 ± 0.11 | 2.18 ± 0.22 | 2.13 ± 0.062
ESLVHSALCILKEQELV [BRR2] | 2.35 ± 0.2 | 1.77 ± 0.079 | 1.92 ± 0.14 | 2.51 ± 0.13
ESQQQDESLKDEATVPN [SWI3] | 3.19 ± 0.079 | 3.36 ± 0.09 | 3.31 ± 0.15 | 3.21 ± 0.098
ESSHEQEEFVQFLQLDN [ECM29] | 3.5 ± 0.21 | 3.31 ± 0.13 | 3.22 ± 0.16 | 3.29 ± 0.14
ESSKALADSLDRCVDPE [DIS3] | 2.75 ± 0.084 | 2.27 ± 0.076 | 2.29 ± 0.21 | 2.38 ± 0.19
